Measured values as given in publication PMC3985934 (Biochemistry, 2014).
Numbering of substitutions follows the chain as printed. In names and notes the source's numbering stands. Where two headings read alike, the source gives them in different places.

B1: Rhizobium etli pyruvate carboxylase, wild type (enzyme)
chain: PISKILVANRSEIAIRVFRAANELGIKTVAIWAEEDKLALHRFKADESYQVGRGPHLARDLGPIESYLSIDEVIRVAKLSGADAIHPGYGLLSESPEFVDACNKAGIIFIGPKADTMRQLGNKVAARNLAISVGVPVVPATEPLPDDMAEVAKMAAAIGYPVMLKASWGGGGRGMRVIRSEADLAKEVTEAKREAMAAFGKDEVYLEKLVERARHVESQILGDTHGNVVHLFERDCSVQRRNQKVVERAPAPYLSEAQRQELAAYSLKIAGATNYIGAGTVEYLMDADTGKFYFIEVNPRIQVEHTVTEVVTGIDIVKAQIHILDGAAIGTPQSGVPNQEDIRLNGHALQCRVTTEDPEHNFIPDYGRITAYRSASGFGIRLDGGTSYSGAIITRYYDPLLVKVTAWAPNPLEAISRMDRALREFRIRGVATNLTFLEAIIGHPKFRDNSYTTRFIDTTPELFQQVKRQDRATKLLTYLADVTVNGHPEAKDRPKPLENAARPVVPYANGNGVKDGTKQLLDTLGPKKFGEWMRNEKRVLLTDTTMRDGHQSLLATRMRTYDIARIAGTYSHALPNLLSLECWGGATFDVSMRFLTEDPWERLALIREGAPNLLLQMLLRGANGVGYTNYPDNVVKYFVRQAAKGGIDLFRVFDCLNWVENMRVSMDAIAEENKLCEAAICYTGDILNSARPKYDLKYYTNLAVELEKAGAHIIAVKDMAGLLKPAAAKVLFKALREATGLPIHFHTHDTSGIAAATVLAAVEAGVDAVDAAMDALSGNTSQPCLGSIVEALSGSERDPGLDPAWIRRISFYWEAVRNQYAAFESDLKGPASEVYLHEMPGGQFTNLKEQARSLGLETRWHQVAQAYADANQMFGDIVKVTPSSKVVGDMALMMVSQDLTVADVVSPDREVSFPESVVSMLKGDLGQPPSGWPEALQKKALKGEKPYTVRPGSLLKEADLDAERKVIEKKLEREVSDFEFASYLMYPKVFTDFALASDTYGPVSVLPTPAYFYGLADGEELFADIEKGKTLVIVNQAVSATDSQGMVTVFFELNGQPRRIKVPDRAHGATGAAVRRKAEPGNAAHVGAPMPGVISRVFVSSGQAVNAGDVLVSIEAMKMETAIHAEKDGTIAEVLVKAGDQIDAKDLLAVYGG
modifications: biotin prosthetic group (enzymic biotin; residue not given)
B2: Rhizobium etli pyruvate carboxylase, H216N mutant (enzyme)
chain: B1 chain with H215N
modifications: biotin prosthetic group (enzymic biotin; residue not given)

Experiments:
[1] = target: the molecule itself; assay: AUC
[2] = target: the molecule itself; assay: AUC; remark: listed apart in the source

Protein	stoichiometry N [1]	stoichiometry N [2]
B1	4	4
B2	4	4
